Laboratory results taken from patent CN113185608A.
Residue numbers refer to the chain shown, from its start.

B1: 1H3+3λ1 (antibody, V domains shown)
VH: VHSQVQLVESGGGVVQPGRSLRLSCAASGFTFSSYAMHWVRQAPGKGLEWVAVISYDGNKYYADSVKGRFTISRDNSKNTLYLQMNSLRDEDTAVYYCARAPDCSGGSCSTEYFQHWGQGTLVTVSS
VL: SWAQSVLTQEPSLTVSPGGTVTLTCGSSTGAVTSGLYAYWFQQKPGQVPRTLIYNISNKQSWTPARFSGSLLGGKAALTLSGAQPEDEADYYCLLSYSRTRVFGTKLTVLGQPKAAPSVTLFP
B2: 1H18+3λ10 (antibody, V domains shown)
VH: EVQLVQSGGGLVQPGGSLRLSCAASGFTFSTYWMNWVRLSQTPGKGLEWVANINRDGSQKYYVDSVEGRFTISRLSDNAKSSLYLQMNSLRADDTAVYYCMSGYDSGHWGQGSTVTVSS
VL: SQTVVTQEPSLTVSPGGTVTLTCGSSTGAVTSGLYAQQKPGQVPRTLIYNISNKQSWTPARFSGSLLGGKAALTLSGAQPEDEADYYCLLSYSRTRVFGGGTKLTVLG
B3: 1H10+3λ5 (antibody, V domains shown)
VH: EVQLVQSGGGLVQPGGSLRLSCAASVEAFSTYWMNWVRQAPGKGLEWVANINRDGSQKYYVDSVEGRFTISRDNAKSSLYLQMNSLRADDTAVYYCMSGYDSGHWGQGSLVTVSS
VL: SQAVVTQEPSLTVSPGGTVTLTCGSSTGAVTSGLYAYWFQQKPGQVPRTLSTGAVIYNISNKQSWTPARFSGSLLGGKAALTLSGAQPEDEADYYCLLSYSRTRVFGGGTKLTVLG
B4: 1H16+3λ7 (antibody, V domains shown)
VH: B3 VH with Q6E, V26G, E27F, A28T
VL: SQAVVTQEPSLTVSPGGTVTLTCGSSTGAVTSGLYAYWTVTFQQKPGQVPRTLIYNISNKQSWTPARFSGSLLGGKAALTLSGAQPEDEADYYCLLSYSRTRVFGGGTKLTVLG
B5: 1H17+3λ8 (antibody, V domains shown)
VH: EVQLLESGGGLVQPGGSLRLSCAASGFTFSTYWMNWVRQAPGKGLEWVANRDGSQKYYVDSVEGRFTISRDNAKSSLYLQMNSLRADDTAVYYCMSGYDSGHWGQGSTVTVSS
VL: ANFMLTQEPSLTVSPGGTVTLTCGSSTGAVTSGLYAYWFQQKPGQVPRTLIYNISNKQSWTPARFSGSLLGGKAALTLSGPEDEADYYCLLSYSRTRVFGGGTKLTVLG

Target: 狂犬病毒糖蛋白(Glycoprotein，GP) (Rabies virus (RABV))
Test: ELISA of HEK293T transfection supernatant

Row | Binder | OD (ELISA)
1 | B1 | > 1.1 OD
2 | B2 | > 1.1 OD
3 | B3 | > 1.1 OD
4 | B4 | > 1.1 OD
5 | B5 | > 1.1 OD
